By Km is commonly meant the substrate concentration at which the rate is half of its maximum. In general, kcat refers to the number of substrate molecules converted per active site and unit of time at saturation. By kcat/Km is commonly meant the turnover number divided by the Michaelis constant.

This series concerns N#CO. As to the kind of experiment: purified protein. It counts as biochemical, Thermomyces lanuginosus. Particulars: free enzyme, standard assay: co-substrate bicarbonate (0.2 mL of 15 mM NaHCO3 in 1 mL), 50 mM Tris-HCl pH 8, 60 °C.

As to TlCyn (Thermomyces lanuginosus), the Km was determined as 440 µM, the kcat was 18400 s⁻¹ and the kcat/Km came to 4.19e+07 M⁻¹ s⁻¹.

(Values after paper PMC11435769, “Entrapment of Cyanase from Thermomyces lanuginosus Using Biomimetic Silica and Its Application for Cyanate Bioremediation” (Polymers, 2024).)
